In the supplement of paper PMC7877785:
± gives the uncertainty stated by the source.

Test: self-splicing fitness, log relative to wild type (ln ratio); higher = more splicing; Tetrahymena group I intron in knt gene, E. coli kanamycin selection, DiMSum; sequences stand for … in CUCUCU…GGAGGGAAAAGUUAUCAGGCAUGCACCUGGUAGCUAGUCUUUAAACCAAUAGAUUGCAUCGGUUUAAAAGGCAAGACCGUCAAAUUGCGGGAAAGGGGUCAACAGCCGUUCAGUACCAAGUCUCAGGGGAAACUUUGAGAUGGCCUUGCAAAGGGUAUGGUAAUAAGCUGACGGACAUGGUCCUAACCACGCAGCCAAGUCCUAAGUCAACAGAUCUUCUGUUGAUAUGGAUGCAGUUCACAGACUAAAUGUCGGUCGGGGAAGAUGUAUUCUUCUCAUAAGAUAUAGUCGGACCUCUCCUUAAUGGGAGCUAGCGGAUGAAGUGAUGCAACACUGGAGCCGCUGGGAACUAAUUUGUAUGCGAAAGUAUAUUGAUUAGUUUUGGAGUACUCGUGGUCG
Outline: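 Library with all eight P1ex-region intron nucleotides randomised, intron inside the knt kanamycin-resistance gene on pET-22b(+), in E. coli BL21(DE3). Cells grew overnight at 37°C or 30°C on LB agar with or without 25 μg/mL kanamycin (plus 100 μg/mL carbenicillin, 50 μM IPTG, 0.2% rhamnose), in six replicate transformations. Pooled colonies were amplicon-sequenced on Illumina HiSeq 2500. DiMSum fitness is the error-weighted combination of wild-type-normalised replicate fold changes, kanamycin versus none.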

Sequence	self-splicing fitness (ln) (30 °C)	self-splicing fitness (ln) (37 °C)
GCCUAGCAAUAUUACGGCCG	-3.44 ± 0.26	-2.37 ± 0.32
GCCUAGCAAUAUUACGGCGA	-2.64 ± 0.4	-1.41 ± 0.28
GCCUAGCAAUAUUACGGCGC	-0.67 ± 0.14	0.263 ± 0.18
GCCUAGCAAUAUUACGGCGU	-0.505 ± 0.074	-0.0919 ± 0.08
GCCUAGCAAUAUUACGGCUA	-1.2 ± 0.46	-2.49 ± 0.39
GCCUAGCAAUAUUACGGGCA	-1.3 ± 0.12	-1.61 ± 0.12
GCCUAGCAAUAUUACGGGGG	-2.92 ± 0.22	-1.34 ± 0.13
GCCUAGCAAUAUUACGGUAG	-3.79 ± 0.18	-2.99 ± 0.27
GCCUAGCAAUAUUACGUCAU	-2.73 ± 0.2	-1.4 ± 0.17
GCCUAGCAAUAUUACGUCCU	-1.68 ± 0.068	-0.494 ± 0.096
GCCUAGCAAUAUUACGUCGA	-1.67 ± 0.17	-1.6 ± 0.21
GCCUAGCAAUAUUACGUGGG	-4.52 ± 0.23	-3.36 ± 0.3
GCCUAGCAAUAUUACGUGUC	-1.13 ± 0.056	-0.843 ± 0.058
GCGAAGCAAUAUUACGAAAA	-3.24 ± 0.43	–
GCGAAGCAAUAUUACGAAAU	-3.46 ± 0.35	-1.07 ± 0.22
GCGAAGCAAUAUUACGAACA	-1.49 ± 0.34	-1.16 ± 0.29
GCGAAGCAAUAUUACGAGCG	-2.04 ± 0.14	-1.11 ± 0.19
GCGAAGCAAUAUUACGAGGA	–	-1.58 ± 0.31
GCGAAGCAAUAUUACGAUUU	-1.09 ± 0.057	-0.156 ± 0.075
GCGAAGCAAUAUUACGCAAG	-2.51 ± 0.42	–
GCGAAGCAAUAUUACGCACU	-1.72 ± 0.18	-0.633 ± 0.21
GCGAAGCAAUAUUACGCAUC	-4.03 ± 0.44	-1.78 ± 0.23
GCGAAGCAAUAUUACGCAUG	-3.12 ± 0.44	-2.76 ± 0.24
GCGAAGCAAUAUUACGCCAC	–	-2.24 ± 0.42
GCGAAGCAAUAUUACGCCUU	–	-1.5 ± 0.26

Sequence	self-splicing fitness (ln) (30 °C)	self-splicing fitness (ln) (37 °C)
GCGAAGCAAUAUUACGCUAU	-2.45 ± 0.1	-1.25 ± 0.11
GCGAAGCAAUAUUACGGAAU	-3.17 ± 0.13	-1.73 ± 0.13
GCGAAGCAAUAUUACGGAGC	-2.69 ± 0.16	-2.52 ± 0.21
GCGAAGCAAUAUUACGGCCA	-0.992 ± 0.092	-0.821 ± 0.1
GCGAAGCAAUAUUACGGGAG	-3.05 ± 0.17	-2.62 ± 0.22
GCGAAGCAAUAUUACGGGGU	-3.89 ± 0.34	-2.89 ± 0.29
GCGAAGCAAUAUUACGGUCG	-3.65 ± 0.32	-2.77 ± 0.4
GCGAAGCAAUAUUACGGUUG	-1.54 ± 0.11	-1.9 ± 0.15
GCGAAGCAAUAUUACGUCGA	-2.01 ± 0.1	-0.792 ± 0.094
GCGAAGCAAUAUUACGUGCC	-3.73 ± 0.18	-3 ± 0.23
GCGAAGCAAUAUUACGUUAG	-2.77 ± 0.12	-2.35 ± 0.15
GCGCAGCAAUAUUACGAAAG	-2.66 ± 0.16	-1.68 ± 0.14
GCGCAGCAAUAUUACGAAGG	-1.79 ± 0.087	-0.733 ± 0.12
GCGCAGCAAUAUUACGACAA	-0.598 ± 0.12	-0.342 ± 0.11
GCGCAGCAAUAUUACGACUC	-0.32 ± 0.17	0.304 ± 0.15
GCGCAGCAAUAUUACGACUG	-1.91 ± 0.12	-1.98 ± 0.23
GCGCAGCAAUAUUACGAGUG	-1.6 ± 0.1	-1.47 ± 0.15
GCGCAGCAAUAUUACGCAGC	–	-1.32 ± 0.33
GCGCAGCAAUAUUACGCCAC	–	-1.17 ± 0.36
GCGCAGCAAUAUUACGCCCG	-1.59 ± 0.2	0.0341 ± 0.27
GCGCAGCAAUAUUACGCCGU	-1.57 ± 0.13	-2.07 ± 0.27
GCGCAGCAAUAUUACGCCUG	-2.75 ± 0.15	-1.48 ± 0.15
GCGCAGCAAUAUUACGCGCA	-4.09 ± 0.32	0.322 ± 0.13
GCGCAGCAAUAUUACGCUAU	-0.914 ± 0.096	-0.406 ± 0.12
GCGCAGCAAUAUUACGCUGA	-1.16 ± 0.12	-0.667 ± 0.1

Sequence	self-splicing fitness (ln) (30 °C)	self-splicing fitness (ln) (37 °C)
GCGCAGCAAUAUUACGGAAU	-1.12 ± 0.13	-0.337 ± 0.15
GCGCAGCAAUAUUACGGACU	-0.744 ± 0.12	-0.35 ± 0.12
GCGCAGCAAUAUUACGGAGA	-4.36 ± 0.42	-1.69 ± 0.19
GCGCAGCAAUAUUACGGCUG	-3.01 ± 0.3	-1.7 ± 0.29
GCGCAGCAAUAUUACGGGCG	-3.71 ± 0.47	-3.03 ± 0.4
GCGCAGCAAUAUUACGGUGA	-0.545 ± 0.066	-0.107 ± 0.086
GCGCAGCAAUAUUACGUAAU	-0.192 ± 0.061	0.31 ± 0.07
GCGCAGCAAUAUUACGUACC	-1.63 ± 0.11	-0.655 ± 0.13
GCGCAGCAAUAUUACGUACG	-3.47 ± 0.2	-1.09 ± 0.16
GCGCAGCAAUAUUACGUAUA	-1.31 ± 0.06	-1.05 ± 0.081
GCGCAGCAAUAUUACGUCGU	-3.02 ± 0.12	-2.75 ± 0.18
GCGCAGCAAUAUUACGUCUU	-0.65 ± 0.049	0.336 ± 0.064
GCGCAGCAAUAUUACGUGAU	-0.659 ± 0.063	0.488 ± 0.083
GCGCAGCAAUAUUACGUGGU	-2.14 ± 0.081	-1.02 ± 0.086
GCGCAGCAAUAUUACGUUUU	-0.735 ± 0.049	-0.277 ± 0.063
GCGGAGCAAUAUUACGAACG	-3.06 ± 0.29	-2.41 ± 0.23
GCGGAGCAAUAUUACGACGU	-4.57 ± 0.46	-2.5 ± 0.3
GCGGAGCAAUAUUACGACUC	-2.06 ± 0.25	-0.372 ± 0.34
GCGGAGCAAUAUUACGAGGA	-2.26 ± 0.47	-2.66 ± 0.37
GCGGAGCAAUAUUACGCCAA	-2.32 ± 0.44	–
GCGGAGCAAUAUUACGCGGC	-3.04 ± 0.48	–
GCGGAGCAAUAUUACGGAUG	-3.28 ± 0.17	-1.67 ± 0.22
GCGGAGCAAUAUUACGGCGA	-1.5 ± 0.23	-1.29 ± 0.28
GCGGAGCAAUAUUACGGGAU	0.0919 ± 0.27	–
GCGGAGCAAUAUUACGGGGU	-1.55 ± 0.23	–

Sequence	self-splicing fitness (ln) (30 °C)	self-splicing fitness (ln) (37 °C)
GCGGAGCAAUAUUACGUAGC	-1.91 ± 0.28	-2.38 ± 0.41
GCGGAGCAAUAUUACGUCUC	–	-2.54 ± 0.38
GCGGAGCAAUAUUACGUGGU	-3.54 ± 0.26	-3.01 ± 0.4
GCGGAGCAAUAUUACGUGUC	-2.84 ± 0.3	-1.06 ± 0.43
GCGUAGCAAUAUUACGAAAU	-2.16 ± 0.29	-0.358 ± 0.24
GCGUAGCAAUAUUACGAAGU	-2.22 ± 0.15	-1.11 ± 0.16
GCGUAGCAAUAUUACGACGC	-3.7 ± 0.39	–
GCGUAGCAAUAUUACGCAUC	-3.37 ± 0.5	-1 ± 0.4
GCGUAGCAAUAUUACGCCGA	–	-2.28 ± 0.47
GCGUAGCAAUAUUACGCUCC	-1.88 ± 0.2	-0.401 ± 0.39
GCGUAGCAAUAUUACGGACA	-1.31 ± 0.17	-0.534 ± 0.13
GCGUAGCAAUAUUACGGCCA	–	0.769 ± 0.3
GCGUAGCAAUAUUACGGGAA	-1.38 ± 0.27	-1.44 ± 0.34
GCGUAGCAAUAUUACGGGCA	-0.858 ± 0.2	-0.854 ± 0.17
GCGUAGCAAUAUUACGGUAU	-2.03 ± 0.077	-0.828 ± 0.1
GCGUAGCAAUAUUACGUACA	-1.1 ± 0.16	-1.23 ± 0.14
GCGUAGCAAUAUUACGUAGU	-2.27 ± 0.21	-0.677 ± 0.14
GCGUAGCAAUAUUACGUCAU	-3.22 ± 0.26	-2.25 ± 0.3
GCGUAGCAAUAUUACGUCGG	-2.69 ± 0.21	-3.18 ± 0.24
GCGUAGCAAUAUUACGUGAC	-2.29 ± 0.29	-1.15 ± 0.28
GCGUAGCAAUAUUACGUGCA	-1.53 ± 0.12	-1.02 ± 0.13
GCGUAGCAAUAUUACGUGCU	-2.05 ± 0.16	-2.44 ± 0.27
GCGUAGCAAUAUUACGUGGA	-3.68 ± 0.48	-2.23 ± 0.38
GCGUAGCAAUAUUACGUGUA	-3.63 ± 0.21	-2.43 ± 0.12
GCGUAGCAAUAUUACGUUCC	–	-2.36 ± 0.49
